Consider seven molecules from patent US20200247894A1 (Regeneron, published 2020).

Experiment [1] has as its target T1, Human IL2Rγ extracellular domain expressed with a C-terminal myc-myc-hexahistidine tag (human).
T1 construct: also called hIL-2Rg-MMH; hIL-2RG-MMH
T1 chain: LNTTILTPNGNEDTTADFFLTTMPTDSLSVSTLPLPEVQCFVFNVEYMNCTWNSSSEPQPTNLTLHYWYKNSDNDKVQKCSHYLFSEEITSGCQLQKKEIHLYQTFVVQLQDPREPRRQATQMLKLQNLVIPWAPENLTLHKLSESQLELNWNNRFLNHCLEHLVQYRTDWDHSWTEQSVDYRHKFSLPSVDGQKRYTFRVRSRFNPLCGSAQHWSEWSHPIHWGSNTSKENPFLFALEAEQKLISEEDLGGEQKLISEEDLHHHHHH
Put plainly: SPR, captured mAb, 25C, dissociation pH 7.4. On the procedure:
(§1) The dissociation rate constant (kd) for binding of IL-2Rγ reagents to purified anti-IL2Rγ monoclonal antibodies was determined using a real-time surface plasmon resonance based Biacore 4000 biosensor platform. […] The CM5 Biacore sensor surface derivatized by amine coupling with monoclonal mouse anti-human Fc antibody (GE, Catalog # BR-1008-39) was used to capture anti-IL2Rγ monoclonal antibodies expressed with human IgG4 Fc. All the IL2Rγ reagents were expressed with a C-terminal myc-myc-hexahistidine tag (subsequently referred to with a -MMH suffix). […] The dissociation of bound IL-2Rg-MMH was performed in PBS-T-pH7.4 or PBS-T-pH6.0 running buffers for 6 minutes.
(§2) Dissociation rate constants (kd) in two running buffers were determined by fitting the real-time binding sensorgrams to a 1:1 binding model using Scrubber 2.0c curve-fitting software. Values of dissociation rate for […] mAb binding to hIL-2RG-MMH and mfIL-2RG-MMH at 25° C. and 37° C. in PBS-T-pH7.4 and PBS-T-pH6.0 is shown in Table 2-1 through Table 2-8.

Experiment [2] has as its target T2, Macaca fascicularis IL2Rγ extracellular domain expressed with a C-terminal myc-myc-hexahistidine tag (Macaca fascicularis).
T2 construct: also called mfIL-2Rg-MMH; mfIL-2RG-MMH
T2 chain: T1 chain with T14A, A16T, T22S, H141R, T228S
Put plainly: SPR, captured mAb, 25C, dissociation pH 7.4. How it is done:
as §1, §2

For experiment [3], the target named is T1, Human IL2Rγ extracellular domain …. Put plainly: SPR, captured mAb, 25C, dissociation pH 6.0. On the procedure: as §1, §2
Experiment [4] addresses T2, Macaca fascicularis IL2Rγ extracellular …. Put plainly: SPR, captured mAb, 25C, dissociation pH 6.0. How it is done: as §1, §2
The target of experiment [5] is T1, Human IL2Rγ extracellular domain …. Put plainly: SPR, captured mAb, 37C, dissociation pH 7.4. How it is done:
as §1, §2

Experiment [6] shares this target. Briefly: SPR, captured mAb, 37C, dissociation pH 6.0. On the procedure: as §1, §2

Residue numbers refer to the chain shown, from its start.

B1: H4H12922P2 (antibody, human IgG4 S228P, kappa, V domains shown)
VH: QVQLVESGGGVVKPGGSLRLSCAASGFTFSNSGIHWVRQAPGKGLEWVALISYAGSNKYYADSVKGRFTISRDNSKNTLSLQMNSLRAEDTAVYYCAKEVWTGTYDSFDMWGRGTMVTVSS
VL: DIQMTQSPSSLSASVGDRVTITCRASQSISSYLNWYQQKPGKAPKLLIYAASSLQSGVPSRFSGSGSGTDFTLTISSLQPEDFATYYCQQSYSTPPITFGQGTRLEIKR
notes: anti-IL2Rgamma mAb expressed with human IgG4 Fc; also called REGN7256
For B1, the “100 nM Ag Bound (RU)” value in experiment [1] turned out to be 164 RU; in experiment [2] it was 168 RU; in experiment [3] it was 126 RU; in experiment [4], 129 RU; in experiment [5], 184 RU; in experiment [6], 147 RU. In addition, the koff in experiment [1] came to 0.000204 s⁻¹; in experiment [2], 0.000191 s⁻¹; in experiment [3], 0.00118 s⁻¹; in experiment [4] it was 0.00111 s⁻¹; in experiment [5], 0.000773 s⁻¹; in experiment [6] it was 0.00374 s⁻¹. For the same molecule, the “t1/2” value came out at 57 min in experiment [1]; 61 min in experiment [2]; 10 min in experiment [3]; 10 min in experiment [4]; 15 min in experiment [5]; 3 min in experiment [6].

B2: H4H12913P2 (antibody, human IgG4 S228P, kappa, V domains shown)
VH: EVQLVESGGGVVRPGGSLRLSCAASGFTFDDYGMSWVRQAPGKGLEWISSINRNGGSADYADSVKGRFTISRDNAKNSLFLQMSSLRAEDTALYHCASGEFRFDYWGQGTLVTVSS
VL: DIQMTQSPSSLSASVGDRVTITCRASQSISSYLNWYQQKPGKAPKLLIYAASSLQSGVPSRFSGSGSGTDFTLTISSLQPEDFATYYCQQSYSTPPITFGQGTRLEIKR
notes: anti-IL2Rgamma mAb expressed with human IgG4 Fc
Regarding B2, the “100 nM Ag Bound (RU)” value in experiment [1] turned out to be 56 RU; in experiment [2] it was 57 RU; in experiment [3], 43 RU; in experiment [4], 44 RU; in experiment [5] it was 82 RU; in experiment [6], 59 RU. Further, the koff came to 0.000303 s⁻¹ in experiment [1]; 0.000272 s⁻¹ in experiment [2]; 0.00105 s⁻¹ in experiment [3]; 0.000992 s⁻¹ in experiment [4]; 0.00116 s⁻¹ in experiment [5]; 0.00383 s⁻¹ in experiment [6]. Also, the “t1/2” value in experiment [1] is 38 min; in experiment [2] it was 43 min; in experiment [3], 11 min; in experiment [4], 12 min; in experiment [5] it was 10 min; in experiment [6], 3 min.

B3: H4H12927P2 (antibody, human IgG4 S228P, kappa, V domains shown)
VH: EVQLVESGGGVVRPGGSLRLSCATSGFTFDDYGMSWVRQVPGKGLEWVSSVNRNGGTTDYADSVKGRFTISRDNAKRSLFLQMNSLRAEDTALYHCATGELFFDYWGQGTLVTVSS
VL: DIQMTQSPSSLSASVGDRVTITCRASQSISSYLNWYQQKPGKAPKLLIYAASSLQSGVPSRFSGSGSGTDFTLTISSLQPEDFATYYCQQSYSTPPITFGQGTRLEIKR
notes: as for B2
On to B3, for which the “100 nM Ag Bound (RU)” value in experiment [1] was determined as 36 RU; in experiment [2] it was 38 RU; in experiment [3], 30 RU; in experiment [4] it was 30 RU; in experiment [5] it was 23 RU; in experiment [6], 19 RU. In addition, the dissociation rate constant (koff) in experiment [1] was 0.00163 s⁻¹; in experiment [2] it was 0.000984 s⁻¹; in experiment [3] it was 0.00499 s⁻¹; in experiment [4], 0.0032 s⁻¹; in experiment [5], 0.00982 s⁻¹; in experiment [6], 0.0239 s⁻¹. For the same molecule, the “t1/2” value in experiment [1] was determined as 7 min; in experiment [2], 12 min; in experiment [3], 2.3 min; in experiment [4], 3.6 min; in experiment [5] it was 1.2 min; in experiment [6], 0.5 min.

B4: H4H12858P (antibody, human IgG4 S228P, kappa, V domains shown)
VH: EVQLVESGGDLVQPGGSLRLSCTASGFIFRNYAMNWVRQAPGKGLEWLSGILGSNDNTYYVDSVKGRFTISRDNSRNTLYLQMNSLRAEDSAVYYCAKGDAGGFDYWGQGTLVTVSS
VL: DVVMTQSPLSLPVILGQPASISCRSSQSLVSSDGNTYLNWFQQRPGQSPRRLIYKVSNRDSGVPDRFSGSGSGTDFTLKISRVEAEDVGAYYCMQGSYWPPTFGQGTKLEIKR
notes: anti-IL2Rgamma mAb expressed with human IgG4 Fc; also called REGN9433
For B4, the “100 nM Ag Bound (RU)” value in experiment [1] worked out at 111 RU; in experiment [2], 111 RU; in experiment [3], 103 RU; in experiment [4] it was 100 RU; in experiment [5], 141 RU; in experiment [6], 136 RU. Moreover, the koff was found to be 0.000184 s⁻¹ in experiment [1]; 0.000171 s⁻¹ in experiment [2]; 0.000377 s⁻¹ in experiment [3]; 0.000385 s⁻¹ in experiment [4]; 0.000661 s⁻¹ in experiment [5]; 0.00172 s⁻¹ in experiment [6]. Further, the “t1/2” value in experiment [1] turned out to be 63 min; in experiment [2], 68 min; in experiment [3], 31 min; in experiment [4], 30 min; in experiment [5], 17 min; in experiment [6], 7 min.

B5: H4H13538P (antibody, human IgG4 S228P, kappa, V domains shown)
VH: EVQLVESGGGLVQPGGSLGLSCAASGFTFSNYAMSWVRQAPGKGLEWVSAVSGGGGGTYYADSVKGRFTISRDNSKNTVLLQMNSLRAEDTAVYYCARGRTGGLDYWGPGTLVTVSS
VL: B4 VL with L15F, S31D, F41L, K55E, K79T, A90I, S97T, Y98R, Q105G, L109V
notes: as for B2
With B5, the “100 nM Ag Bound (RU)” value in experiment [1] turned out to be 82 RU; in experiment [2], 94 RU; in experiment [3] it was 93 RU; in experiment [4], 96 RU; in experiment [5] it was 110 RU; in experiment [6], 120 RU. For the same molecule, the koff is 0.000139 s⁻¹ in experiment [1]; 0.000179 s⁻¹ in experiment [2]; 0.000417 s⁻¹ in experiment [3]; 0.000439 s⁻¹ in experiment [4]; 0.000599 s⁻¹ in experiment [5]; 0.00148 s⁻¹ in experiment [6]. The “t1/2” value in experiment [1] worked out at 83 min; in experiment [2], 65 min; in experiment [3], 28 min; in experiment [4], 26 min; in experiment [5] it was 19 min; in experiment [6], 8 min.

B6: H4H12859P (antibody, human IgG4 S228P, kappa, V domains shown)
VH: QVQLVQSGAEVKKPGASVRVSCKASGYTFTDYDIHWVRQAPGHGLEWMGWINPNSGGTNYAQKFQGRVTMTRDTSISTVYMDLSRLRSDDTAVYYCARADYSSSYYYYGMDVWGQGTTVTVSS
VL: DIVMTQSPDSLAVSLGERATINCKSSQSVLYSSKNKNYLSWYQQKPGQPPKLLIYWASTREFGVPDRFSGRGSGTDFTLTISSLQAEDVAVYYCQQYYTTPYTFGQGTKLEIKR
notes: as for B2
In the case of B6, the “100 nM Ag Bound (RU)” value in experiment [1] was 54 RU; in experiment [2], 51 RU; in experiment [3], 39 RU; in experiment [4], 37 RU; in experiment [5], 55 RU; in experiment [6] it was 36 RU. Further, the koff in experiment [1] was 0.00111 s⁻¹; in experiment [2], 0.000871 s⁻¹; in experiment [3] it was 0.00503 s⁻¹; in experiment [4] it was 0.00413 s⁻¹; in experiment [5], 0.00454 s⁻¹; in experiment [6] it was 0.0132 s⁻¹. Besides, the “t1/2” value in experiment [1] stood at 10 min; in experiment [2], 13 min; in experiment [3], 2.3 min; in experiment [4], 2.8 min; in experiment [5], 2.5 min; in experiment [6] it was 0.9 min.

B7: H4H12863P (antibody, human IgG4 S228P, kappa, V domains shown)
VH: QVQLVESGGGVVQPGRSLRLSCTASGFTFRSYDMYWVRQAPGKGLEWVSVITYDGNNKYYADSVKGRFTISRDNSKNTLFLQMSSLRPEDTAVYYCAKRGLIWVGESFDYWGQGTLVTVSS
VL: DIQMTQSPSTLSASVGDRVTITCRASQSINSWLAWYQQKPGKAPNLLIYKASSLESGVPSRFSGSGSGTEFTLTISSLQPDDFATYYCQQYKSYSWTFGQGTKVEIKR
notes: as for B2
Regarding B7, the “100 nM Ag Bound (RU)” value in experiment [1] came to 151 RU; in experiment [2], 155 RU; in experiment [3] it was 116 RU; in experiment [4], 118 RU; in experiment [5], 176 RU; in experiment [6], 145 RU. The koff in experiment [1] worked out at 0.000172 s⁻¹; in experiment [2], 0.000194 s⁻¹; in experiment [3], 0.000762 s⁻¹; in experiment [4], 0.000761 s⁻¹; in experiment [5], 0.000672 s⁻¹; in experiment [6], 0.00226 s⁻¹. Moreover, the “t1/2” value came to 67 min in experiment [1]; 59 min in experiment [2]; 15 min in experiment [3]; 15 min in experiment [4]; 17 min in experiment [5]; 5 min in experiment [6].
